Measured values published in patent publication US20150368311A1 (Sanofi, published 2015).
Non-standard residues stand in square brackets, D forms with d. No end group written: not given here. 1Nal = N[C@@H](Cc1cccc2ccccc12)C(=O)O; Phg = N[C@H](C(=O)O)c1ccccc1

B1: SEQ ID NO: 32 (peptide)
peptide: HSQGTFTSD[Phg]SKQLESRRAQEFIEWLLATGPESGAPPPS-OH
modifications: N-terminus assumed
SMILES: CC[C@H](C)[C@H](NC(=O)[C@H](Cc1ccccc1)NC(=O)[C@H](CCC(=O)O)NC(=O)[C@H](CCC(N)=O)NC(=O)[C@H](C)NC(=O)[C@H](CCCNC(=N)N)NC(=O)[C@H](CCCNC(=N)N)NC(=O)[C@H](CO)NC(=O)[C@H](CCC(=O)O)NC(=O)[C@H](CC(C)C)NC(=O)[C@H](CCC(N)=O)NC(=O)[C@H](CCCCN)NC(=O)[C@H](CO)NC(=O)[C@@H](NC(=O)[C@H](CC(=O)O)NC(=O)[C@H](CO)NC(=O)[C@@H](NC(=O)[C@H](Cc1ccccc1)NC(=O)[C@@H](NC(=O)CNC(=O)[C@H](CCC(N)=O)NC(=O)[C@H](CO)NC(=O)[C@@H](N)Cc1c[nH]cn1)[C@@H](C)O)[C@@H](C)O)c1ccccc1)C(=O)N[C@@H](CCC(=O)O)C(=O)N[C@@H](Cc1c[nH]c2ccccc12)C(=O)N[C@@H](CC(C)C)C(=O)N[C@@H](CC(C)C)C(=O)N[C@@H](C)C(=O)N[C@H](C(=O)NCC(=O)N1CCC[C@H]1C(=O)N[C@@H](CCC(=O)O)C(=O)N[C@@H](CO)C(=O)NCC(=O)N[C@@H](C)C(=O)N1CCC[C@H]1C(=O)N1CCC[C@H]1C(=O)N1CCC[C@H]1C(=O)N[C@@H](CO)C(=O)O)[C@@H](C)O
B2: SEQ ID NO: 33 (peptide)
peptide: HSQGTFTSD[1Nal]SKQLESRRAQEFIEWLLATGPESGAPPPS-OH
modifications: N-terminus assumed
SMILES: CC[C@H](C)[C@H](NC(=O)[C@H](Cc1ccccc1)NC(=O)[C@H](CCC(=O)O)NC(=O)[C@H](CCC(N)=O)NC(=O)[C@H](C)NC(=O)[C@H](CCCNC(=N)N)NC(=O)[C@H](CCCNC(=N)N)NC(=O)[C@H](CO)NC(=O)[C@H](CCC(=O)O)NC(=O)[C@H](CC(C)C)NC(=O)[C@H](CCC(N)=O)NC(=O)[C@H](CCCCN)NC(=O)[C@H](CO)NC(=O)[C@H](Cc1cccc2ccccc12)NC(=O)[C@H](CC(=O)O)NC(=O)[C@H](CO)NC(=O)[C@@H](NC(=O)[C@H](Cc1ccccc1)NC(=O)[C@@H](NC(=O)CNC(=O)[C@H](CCC(N)=O)NC(=O)[C@H](CO)NC(=O)[C@@H](N)Cc1c[nH]cn1)[C@@H](C)O)[C@@H](C)O)C(=O)N[C@@H](CCC(=O)O)C(=O)N[C@@H](Cc1c[nH]c2ccccc12)C(=O)N[C@@H](CC(C)C)C(=O)N[C@@H](CC(C)C)C(=O)N[C@@H](C)C(=O)N[C@H](C(=O)NCC(=O)N1CCC[C@H]1C(=O)N[C@@H](CCC(=O)O)C(=O)N[C@@H](CO)C(=O)NCC(=O)N[C@@H](C)C(=O)N1CCC[C@H]1C(=O)N1CCC[C@H]1C(=O)N1CCC[C@H]1C(=O)N[C@@H](CO)C(=O)O)[C@@H](C)O

Experiments:
human glucagon receptor = human glucagon receptor (human, UniProt P47871 26-477); assay: cell-based or functional assay
Chain of human glucagon receptor (P47871 26-477): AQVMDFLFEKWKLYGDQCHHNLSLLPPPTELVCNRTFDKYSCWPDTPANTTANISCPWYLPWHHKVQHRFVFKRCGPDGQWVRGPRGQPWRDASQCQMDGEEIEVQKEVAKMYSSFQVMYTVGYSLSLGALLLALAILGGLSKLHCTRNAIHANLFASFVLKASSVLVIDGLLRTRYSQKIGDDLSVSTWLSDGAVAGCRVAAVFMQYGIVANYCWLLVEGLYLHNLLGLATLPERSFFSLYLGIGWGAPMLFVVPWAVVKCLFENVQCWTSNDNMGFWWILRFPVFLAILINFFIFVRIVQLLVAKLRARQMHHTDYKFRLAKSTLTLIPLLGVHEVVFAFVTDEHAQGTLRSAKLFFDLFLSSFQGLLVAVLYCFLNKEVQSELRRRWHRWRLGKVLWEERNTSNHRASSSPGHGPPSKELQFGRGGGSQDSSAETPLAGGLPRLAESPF

human GLP-1 receptor = human GLP-1 receptor (human, UniProt P43220 24-463); assay: cell-based or functional assay

| Binder | EC50 hGlucagon-R, cAMP formation (human glucagon receptor) [nM] | EC50 hGLP-1R, cAMP formation (human GLP-1 receptor) [nM] |
| --- | --- | --- |
| B1 | 0.012 | 18.7 |
| HSQGTFTSDYSKQLESRRAQEFIEWLLATGPESGAPPPS-OH [SEQ ID NO: 29] | 0.0009 | 0.145 |
| HSQGTFTSDLSKQLESRRAQEFIEWLLATGPESGAPPPS-OH [SEQ ID NO: 34] | 0.0014 | 0.363 |
| HSQGTFTSDISKQLESRRAQEFIEWLLATGPESGAPPPS-OH [SEQ ID NO: 31] | 0.0041 | 0.941 |
| HSQGTFTSDVSKQLESRRAQEFIEWLLATGPESGAPPPS-OH [SEQ ID NO: 30] | 0.0065 | 1.18 |
| B2 | 0.0011 | 0.159 |
| HSQGTFTSDLSKQLESRRAQDFIEWLLATGPESGAPPPS-OH [SEQ ID NO: 35] | 0.0071 | 0.934 |
